Results reported in patent US20180127476A1 (Janssen / Centocor, published 2018).
Numbered stars: 1 amine (or outer) side, 2 acyl side, 3 side chain; on linkers, the order of the positions; unused ones are H or OH. Bridge positions count the residues as written; N and C are the ends. Square brackets hold non-standard residues; d marks the D form. Side chains are listed from the residue outwards. * marks the point of attachment. m‑COPhCH2 = meta-toluoyl group on the Ile3 alpha-amine, its methyl linked by thioether to hCys31, O=C(c1cccc(C[*:3])c1)[*:2]; C18 diacid = O=C(O)CCCCCCCCCCCCCCCCC(=O)*; γGlu = O=C(O)[C@H](CCC(=O)[*:2])N[*:1]; Palmitoyl = CCCCCCCCCCCCCCCC(=O)*; hCys = N[C@@H](CCS)C(=O)O; AEEA = NCCOCCOCC(=O)O

T1: human NPY2R Gi-protein coupled receptor (human, UniProt P49146 1-381)
T1 sequence (looked up): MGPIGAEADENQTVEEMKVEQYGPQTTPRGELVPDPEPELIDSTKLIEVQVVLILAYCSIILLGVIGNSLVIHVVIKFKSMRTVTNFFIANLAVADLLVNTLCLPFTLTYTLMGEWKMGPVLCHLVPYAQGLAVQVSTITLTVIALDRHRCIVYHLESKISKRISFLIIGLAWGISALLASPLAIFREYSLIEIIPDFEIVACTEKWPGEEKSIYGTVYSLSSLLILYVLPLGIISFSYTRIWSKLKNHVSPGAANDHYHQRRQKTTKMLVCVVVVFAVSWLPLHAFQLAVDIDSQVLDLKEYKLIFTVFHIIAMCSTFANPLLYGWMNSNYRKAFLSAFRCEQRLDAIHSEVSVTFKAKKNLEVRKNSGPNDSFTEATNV


Each binder was assayed against T1, human NPY2R Gi-protein coupled receptor (assay: cell-based or functional assay).

| Y2R EC50 (nM), inhibition of forskolin-induced cAMP (hY2 assay) [nM] | Binder |
| --- | --- |
| 0.49 | {m‑COPhCH2}-IAPEAPGEDASPEELNRYYASLRAYLNK([γGlu-Palmitoyl])[hCys]TRQRY-NH2 (bridge N-29; not fully specified (bridges)) [Cyclic PYY Analog SEQ ID NO:21] |
| 4.4 | {m‑COPhCH2}-IEPEAPGEDASPEELNRYYASLRAYLNK([γGlu-Palmitoyl])[hCys]TRQRY-NH2 (bridge N-29; not fully specified (bridges)) [Cyclic PYY Analog SEQ ID NO:22] |
| 1.75 | GISPEAPGEK([AEEA-AEEA-γGlu-C18 diacid])ASPEELNRYYASLRHYLNEVTRQRY-NH2 (lactam N-29; also: psi-(R35,Y36) reduced amide bond) [Cyclic PYY Analog SEQ ID NO:72] |
| 0.02 | GISPEAPGEKASPEELNRYYASLRHYLNEVTRQRY-NH2 (lactam N-29; also: psi-(R35,Y36) reduced amide bond) [Cyclic PYY Analog SEQ ID NO:70] |
